Results taken from publication PMC4729957, “The Atg1–kinase complex tethers Atg9-vesicles to initiate autophagy” (Nature Communications, 2016).

T1: Atg1 (S. cerevisiae, UniProt P53104 1-897, phosphothreonine at 226 (T226))
T1 construct: Atg1, S. cerevisiae BY4741, open reading frame from genomic DNA; also called full-length Atg1; Atg1–kinase; source: High Five (BTI-TN-5B1–4) insect cells, purified (Ni-NTA, SEC)
T1 sequence (looked up): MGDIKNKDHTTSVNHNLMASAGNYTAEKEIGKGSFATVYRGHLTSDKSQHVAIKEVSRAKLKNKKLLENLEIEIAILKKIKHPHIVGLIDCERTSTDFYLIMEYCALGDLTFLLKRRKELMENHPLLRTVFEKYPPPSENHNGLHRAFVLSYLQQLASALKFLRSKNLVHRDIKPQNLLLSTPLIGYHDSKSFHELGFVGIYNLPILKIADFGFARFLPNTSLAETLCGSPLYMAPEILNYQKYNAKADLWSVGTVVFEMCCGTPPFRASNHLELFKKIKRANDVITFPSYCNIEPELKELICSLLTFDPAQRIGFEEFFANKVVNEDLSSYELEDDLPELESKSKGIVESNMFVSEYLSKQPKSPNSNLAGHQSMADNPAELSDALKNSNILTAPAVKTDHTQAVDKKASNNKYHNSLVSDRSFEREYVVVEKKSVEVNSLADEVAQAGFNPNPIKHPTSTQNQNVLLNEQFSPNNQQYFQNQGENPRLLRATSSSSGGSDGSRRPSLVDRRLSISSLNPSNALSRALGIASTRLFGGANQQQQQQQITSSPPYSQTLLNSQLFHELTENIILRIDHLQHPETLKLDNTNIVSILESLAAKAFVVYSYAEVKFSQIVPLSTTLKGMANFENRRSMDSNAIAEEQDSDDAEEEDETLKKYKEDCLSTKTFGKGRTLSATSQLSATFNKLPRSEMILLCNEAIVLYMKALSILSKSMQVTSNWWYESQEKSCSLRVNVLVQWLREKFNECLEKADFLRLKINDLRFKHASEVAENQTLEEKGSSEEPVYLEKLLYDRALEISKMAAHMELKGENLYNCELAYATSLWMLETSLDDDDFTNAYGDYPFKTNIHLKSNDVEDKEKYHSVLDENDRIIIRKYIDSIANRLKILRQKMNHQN

T2: Atg9^core (Atg9^281–779), reconstituted in proteoliposomes (S. cerevisiae, UniProt Q12142 281-779)
T2 construct: Atg9, S. cerevisiae BY4741, conserved core region, residues 281–779; modified pET28a(+) vector; about 50% of the protein in the proteoliposomes has its cytoplasmic domains outside; liposomes of cholesterol, POPE, POPC, POPS, without PI; also called Atg9–PLs; Atg9-PL; source: E. coli Rosetta, solubilised in LDAO, purified (Ni-NTA, SEC), reconstituted in liposomes; not shown: His tag, C-terminal, …
T2 sequence (looked up): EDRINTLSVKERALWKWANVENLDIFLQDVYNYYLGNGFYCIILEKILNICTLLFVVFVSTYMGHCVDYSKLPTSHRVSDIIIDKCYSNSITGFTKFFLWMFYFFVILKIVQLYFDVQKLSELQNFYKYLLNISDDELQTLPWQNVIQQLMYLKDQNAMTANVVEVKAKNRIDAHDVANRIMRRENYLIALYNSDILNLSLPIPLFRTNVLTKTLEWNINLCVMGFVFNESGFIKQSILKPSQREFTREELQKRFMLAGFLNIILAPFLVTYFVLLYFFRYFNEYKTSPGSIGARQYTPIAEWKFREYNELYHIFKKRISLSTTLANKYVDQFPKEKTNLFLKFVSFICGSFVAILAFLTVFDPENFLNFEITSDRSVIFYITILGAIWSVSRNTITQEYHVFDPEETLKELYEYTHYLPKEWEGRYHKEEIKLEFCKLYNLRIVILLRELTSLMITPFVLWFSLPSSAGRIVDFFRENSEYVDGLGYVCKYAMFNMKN

B1: Atg13(P), Atg13 phosphorylated by Atg1 in vitro (natural protein, S. cerevisiae, UniProt Q06628 1-738, looked up)
chain: MVAEEDIEKQVLQLIDSFFLKTTLLICSTESSRYQSSTENIFLFDDTWFEDHSELVSELPEIISKWSHYDGRKELPPLVVETYLDLRQLNSSHLVRLKDHEGHLWNVCKGTKKQEIVMERWLIELDNSSPTFKSYSEDETDVNELSKQLVLLFRYLLTLIQLLPTTELYQLLIKSYNGPQNEGSSNPITSTGPLVSIRTCVLDGSKPILSKGRIGLSKPIINTYSNALNESNLPAHLDQKKITPVWTKFGLLRVSVSYRRDWKFEINNTNDELFSARHASVSHNSQGPQNQPEQEGQSDQDIGKRQPQFQQQQQPQQQQQQQQQQQRQHQVQTQQQRQIPDRRSLSLSPCTRANSFEPQSWQKKVYPISRPVQPFKVGSIGSQSASRNPSNSSFFNQPPVHRPSMSSNYGPQMNIEGTSVGSTSKYSSSFGNIRRHSSVKTTENAEKVSKAVKSPLQPQESQEDLMDFVKLLEEKPDLTIKKTSGNNPPNINISDSLIRYQNLKPSNDLLSEDLSVSLSMDPNHTYHRGRSDSHSPLPSISPSMHYGSLNSRMSQGANASHLIARGGGNSSTSALNSRRNSLDKSSNKQGMSGLPPIFGGESTSYHHDNKIQKYNQLGVEEDDDDENDRLLNQMGNSATKFKSSISPRSIDSISSSFIKSRIPIRQPYHYSQPTTAPFQAQAKFHKPANKLIDNGNRSNSNNNNHNGNDAVGVMHNDEDDQDDDLVFFMSDMNLSKEG
modifications: phosphoserine at 428, 429 and 496 and at several other positions (Supplementary Table 1)
notes: Atg13, S. cerevisiae BY4741; also called phosphorylated Atg13; source: E. coli Rosetta, purified; phosphorylated by adding ATP to fully assembled Atg1^PC
B2: Atg13 (natural protein, S. cerevisiae, UniProt Q06628 1-738, looked up)
chain: B1 chain
notes: Atg13, S. cerevisiae BY4741, open reading frame from genomic DNA; source: E. coli Rosetta, purified (Ni-NTA, anion exchange)
B3: Atg17 (natural protein, S. cerevisiae, UniProt Q06410 1-417, looked up)
chain: MNEADVTKFVNNARKTLTDAQLLCSSANLRIVDIKKKLSSWQLSISKLNFLIVGLRQQGKFLYTILKEGIGTKLIQKQWNQAVLVVLVDEMKYWQYEITSKVQRLDGIVNELSISEKDDTDPSKLGDYISRDNVNLLNDKLKEVPVIERQIENIKLQYENMVRKVNKELIDTKLTDVTQKFQSKFGIDNLMETNVAEQFSRELTDLEKDLAEIMNSLTQHFDKTLLLQDKKIDNDEREELFKVVQGDDKELYNIFKTLHEVIDDVDKTILNLGQFLQAKIKEKTELHSEVSEIINDFNRNLEYLLIFKDISNLIDSFKNSCTQDIQTTKELCEFYDNFEESYGNLVLEAKRRKDVANRMKTILKDCEKQLQNLDAQDQEERQNFIAENGTYLPETIWPGKIDDFSSLYTLNYNVKNP
notes: Atg17, S. cerevisiae BY4741, open reading frame from genomic DNA; expressed from pST39; also called full-length Atg17; Atg17-dimer; source: E. coli Rosetta, purified (Ni-NTA, SEC); not shown: His6, N-terminal, cleaved

What was measured:
Atg1 [1] = target: T1, Atg1; assay: SEC; ATP added to fully assembled Atg1^PC (Atg13, Atg29 and Atg1 become phosphorylated by Atg1); SEC and SDS–PAGE of the fractions; details: both partners purified
Atg1 [2] = target: T1, Atg1; assay: SEC; complexes assembled from purified subunits or subcomplexes, 30 min at room temperature, then gel filtration on Superose 6; details: both partners purified
[3] = target: the molecule itself; assay: dynamic light scattering; Stokes radii (RH) of the purified proteins and complexes in solution
[4] = target: T2, Atg9^core (Atg9^281–779), reconstituted …; assay: co-floatation with proteoliposomes; Atg9 variant held in proteoliposomes (synthetic lipids without PI), partner in solution at 1:1, Nycodenz step gradient, 650,000g 2 h at 4 °C, 25 mM HEPES pH 7.0, 100 mM NaCl; top fraction read by SDS–PAGE or α-myc immunoblot; details: both partners purified
Atg13 = target: B2; assay: SEC; complexes assembled from purified subunits or subcomplexes, 30 min at room temperature, then gel filtration on Superose 6; details: both partners purified

B1
binding result (Atg1 [1]): binds

B2
binding result (Atg1 [2]): binds

B3
stoichiometry N [3]: 2
binding result [4]: binds
binding result (Atg13): binds
